# Literature values as cited in patent US7276335B1, “Designing compounds specifically inhibiting ribonucleic acid function” (Massachusetts Institute of Technology, priority 1993, dated 2007).
# B1: α-sarcin: cytotoxic protein with potent antisarcoma activity, isolated from a mold, that inactivates ribosomes by cleaving the rRNA (protein, UniProt P00655 28-177, looked up)
# Ribonuclease alpha-sarcin: AVTWTCLNDQKNPKTNKYETKRLLYNQNKAESNSHHAPLSDGKTGSSYPHWFTNGYDGDGKLPKGRTPIKFGKSDCDRPPKHSKDGNGKTDHYLLEFPTFPDGHDYKFDSKKPKENPGPARVIYTYPNKVFCGIIAHTKENQGELKLCSH
# Legend:
# [1] = test system: normal cells as well as tumor cells; conditions: too toxic for use clinically to treat tumors
# eukaryotic 28 S rRNA = conditions: cleaves one phosphodiester bond on the 3′ side of G-4325
molecule,measurement,setting,value
B1,toxicity to cells,[1],highly toxic to normal cells as well as tumor cells
same,antisarcoma activity,sarcoma,potent antisarcoma activity
same,inactivation of ribosomes by rRNA cleavage,eukaryotic 28 S rRNA,inactivates ribosomes by cleaving the rRNA
